± gives the standard deviation of the averaged measurements.
Test system: ATP
Assay: switch fluorescence ratio, 500 uM ATP over buffer (Cy3 cluster intensity, sum of 5 cycles each) (fold (ratio)); higher = stronger signal-on switching upon ATP binding; sequences stand for … in TCGTCGGCAGCGTCAGATGTGTATAAGAGACAGTTTTTTTTTTTTTTTTTTTTTTTTT…TC
Conditions: aptamer strand: ATP DNA aptamer (quencher-CACCTGGGGGAGTATTGCGGAGGAAGG + anchor), 100 nM annealed; ATP concentration: 500 uM
How it was run: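 Clusters carrying Cy3-labelled switching strands on a modified Illumina MiSeq flow-cell were annealed to 100 nM quencher-labelled ATP aptamer and imaged in selection buffer. They were imaged again after 15 min with 500 uM ATP at 22 °C, over five buffer/ATP cycles with NaOH stripping and re-annealing in between. For each cluster, the fluorescence ratio is the summed Cy3 intensity of the target cycles divided by that of the buffer cycles, averaged per switch-domain sequence. Clusters outside 100-1000 RFU were left out.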
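Also: ATP exposure 15 min at 22 °C before imaging.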

Sequence	switch fluorescence ratio
TCGGGGGGA	1.03 ± 0.034
TCGGGGGGGG	1 ± 0.036
TCGGGGGTAG	0.985 ± 0.014
TCGGGGGTGC	1.04 ± 0.033
TCGGGGTCTT	0.9941 ± 0.0029
TCGGGGTGGG	1.03 ± 0.043
TCGGGGTGTA	1 ± 0.011
TCGGGTCGCC	1 ± 0.044
TCGGGTCGGG	1 ± 0.021
TCGGGTGCGA	1.04 ± 0.011
TCGGGTTAGG	0.998 ± 0.032
TCGGGTTAGT	1.005 ± 0.0081
TCGGGTTCAG	1 ± 0.034
TCGGGTTGAG	1.01 ± 0.067
TCGGGTTTGT	1.01 ± 0.011
TCGGGTTTTC	1 ± 0.039
TCGGTAATC	1.15 ± 0.0017
TCGGTATGAA	1.01 ± 0.018
TCGGTATTTG	0.967 ± 0.037
TCGGTATTTT	1.01 ± 0.026
TCGGTCCCGG	1 ± 0.065
TCGGTCCCTT	0.988 ± 0.035
TCGGTCGGGC	1.01 ± 0.013
TCGGTCGTTT	0.976 ± 0.015
TCGGTGAGAG	1.03 ± 0.019

Sequence	switch fluorescence ratio
TCGGTGAGGT	0.9988 ± 0.0027
TCGGTGGGAG	0.981 ± 0.048
TCGGTGTCCG	1.03 ± 0.055
TCGGTGTTTT	1.05 ± 0.055
TCGGTTGAGA	1.01 ± 0.021
TCGGTTGGGT	0.984 ± 0.038
TCGGTTGGTA	1 ± 0.042
TCGGTTGGTT	0.967 ± 0.023
TCGGTTGTCT	1.02 ± 0.052
TCGGTTTATG	0.994 ± 0.023
TCGGTTTCG	0.989 ± 0.095
TCGGTTTTGC	0.982 ± 0.028
TCGTAAAAA	1.07 ± 0.13
TCGTACCTTG	1.01 ± 0.025
TCGTAGATGT	1 ± 0.026
TCGTAGGGGA	1.03 ± 0.025
TCGTAGGGGG	0.979 ± 0.072
TCGTATTACA	1.011 ± 0.0035
TCGTATTCGG	0.992 ± 0.025
TCGTATTGAG	0.9482 ± 0.0077
TCGTCAGGTG	2.48 ± 0.084
TCGTCATGTT	0.999 ± 0.015
TCGTCCAAGT	1.07 ± 0.066
TCGTCCCTGT	1.074 ± 0.003
TCGTCCGGTA	1.29 ± 0.04

Sequence	switch fluorescence ratio
TCGTCTTATA	0.991 ± 0.014
TCGTGAAGGG	0.979 ± 0.051
TCGTGACGAA	1.03 ± 0.02
TCGTGAGGCT	0.989 ± 0.036
TCGTGCAAGT	1.05 ± 0.063
TCGTGCCAGG	1.032 ± 0.01
TCGTGGCATA	1.11 ± 0.044
TCGTGGGAAA	2.11 ± 1.5
TCGTGTACTA	1.02 ± 0.035
TCGTTAATTA	1.06 ± 0.026
TCGTTAATTT	1.014 ± 0.0029
TCGTTACAGG	1.045 ± 0.0051
TCGTTACCCT	1.02 ± 0.011
TCGTTACGGG	1.17 ± 0.26
TCGTTAGAGG	0.9718 ± 0.0073
TCGTTATTCT	1.04 ± 0.067
TCGTTCGCTA	3.15 ± 0.39
TCGTTCTGAA	0.974 ± 0.022
TCGTTGCGAG	0.9898 ± 0.0096
TCGTTGGGAC	0.979 ± 0.021
TCGTTGGTCC	1.026 ± 0.0048
TCGTTGGTTG	1.02 ± 0.051
TCGTTTACAC	1.01 ± 0.033
TCGTTTACGC	1.02 ± 0.08
TCGTTTAGTG	0.981 ± 0.018

Sequence	switch fluorescence ratio
TCGTTTATTT	1.02 ± 0.014
TCGTTTCGCA	1.11 ± 0.023
TCGTTTGGAA	1 ± 0.025
TCGTTTGGGC	1.02 ± 0.019
TCGTTTGGTG	0.986 ± 0.045
TCGTTTTAGC	1.004 ± 0.0032
TCTAAAAGTG	0.9752 ± 0.0022
TCTAAAATTA	1.007 ± 0.0046
TCTAAATGTT	0.985 ± 0.03
TCTAAGTCGG	0.987 ± 0.015
TCTAAGTCTT	0.98 ± 0.042
TCTACGAAGG	1.034 ± 0.0012
TCTACGGGGG	1.032 ± 0.0024
TCTAGACGTC	0.9972 ± 0.0081
TCTAGGATGG	0.962 ± 0.023
TCTAGGGTGC	1.13 ± 0.042
TCTATAAGGT	0.99 ± 0.022
TCTATAGTAA	1.057 ± 0.0087
TCTATCCCAG	1.13 ± 0.092
TCTATCTAGA	0.988 ± 0.014
TCTATGAGGG	1.01 ± 0.023
TCTATGCTTA	1.01 ± 0.038
TCTATTCTCC	1.52 ± 0.72
TCTCAAGTGG	0.992 ± 0.031
TCTCAGCAAA	3.38 ± 0.53

Sequence	switch fluorescence ratio
TCTCAGTCAC	1.08 ± 0.018
TCTCATGGAG	1 ± 0.012
TCTCCATTTA	1.04 ± 0.015
TCTCCCGGCA	1.34 ± 0.2
TCTCCCTTGT	1.03 ± 0.024
TCTCCTTTTT	1.02 ± 0.053
TCTCGAGGGA	0.981 ± 0.01
TCTCGGAAGA	1.01 ± 0.022
TCTCGGGATT	1 ± 0.013
TCTCGTAACT	1 ± 0.044
TCTCTACTGG	1.03 ± 0.058
TCTCTTATGT	0.985 ± 0.033
TCTCTTCAGC	1 ± 0.0026
TCTCTTGCGG	1.1 ± 0.2
TCTGAAAAAG	2.29 ± 1.9
TCTGAAGATC	1.06 ± 0.065
TCTGACAGTT	1.04 ± 0.029
TCTGAGAGAG	0.9823 ± 0.0032
TCTGAGATAA	1.0208 ± 0.00085
TCTGAGTCCA	1.032 ± 0.0022
TCTGAGTTCA	0.987 ± 0.019
TCTGATTATG	0.987 ± 0.011
TCTGATTTGG	0.978 ± 0.028
TCTGCATGGT	1.07 ± 0.013
TCTGCCCCCC	1.12 ± 0.042

Sequence	switch fluorescence ratio
TCTGCTCTGG	0.983 ± 0.03
TCTGCTTGGG	1.09 ± 0.13
TCTGGAATTG	1.01 ± 0.03
TCTGGACATT	1.01 ± 0.023
TCTGGGAGGG	1.03 ± 0.047
TCTGGGCCAT	1.29 ± 0.43
TCTGGGCTTG	0.999 ± 0.015
TCTGGGGCTT	1.0237 ± 0.00017
TCTGGGGGAC	1.05 ± 0.015
TCTGGGGGGT	1.02 ± 0.035
TCTGGGGGTT	1.02 ± 0.054
TCTGGGTGGC	0.996 ± 0.028
TCTGGGTTAT	0.988 ± 0.033
TCTGGTTGGA	1.04 ± 0.025
TCTGTAGCGG	1.13 ± 0.037
TCTGTATACA	0.989 ± 0.037
TCTGTCTAGT	1.01 ± 0.02
TCTGTGAGTG	0.973 ± 0.014
TCTGTGCATA	1.52 ± 0.1
TCTGTGGCCC	1.01 ± 0.028
TCTGTGGGGA	1.04 ± 0.045
TCTGTGTATT	1.03 ± 0.037
TCTGTTCA	1.005 ± 0.0075
TCTGTTTACG	0.996 ± 0.016
TCTGTTTTAT	0.976 ± 0.017

Sequence	switch fluorescence ratio
TCTTAAAATT	1.012 ± 0.0091
TCTTAAAGAT	1.06 ± 0.022
TCTTAAAGGT	0.986 ± 0.026
TCTTAAGTGC	1.07 ± 0.026
TCTTACGCCA	1.06 ± 0.016
TCTTATGCTC	0.98 ± 0.022
TCTTCCGGTG	1.68 ± 0.045
TCTTCCTAGA	1.031 ± 0.01
TCTTCGGAGT	1.03 ± 0.058
TCTTCGGGGG	1.07 ± 0.032
TCTTGAATAA	0.9856 ± 0.0072
TCTTGAGCAT	1.34 ± 0.13
TCTTGAGGGA	1 ± 0.02
TCTTGATGGA	0.9597 ± 0.0014
TCTTGCATAG	1.11 ± 0.025
TCTTGGAACG	0.998 ± 0.015
TCTTGGACGA	0.991 ± 0.025
TCTTGGGCAT	1.01 ± 0.04
TCTTGGGGAG	0.9815 ± 0.0083
TCTTGGTTTC	0.997 ± 0.013
TCTTGTAAGT	0.992 ± 0.023
TCTTGTATAA	0.9758 ± 0.0029
TCTTGTATAG	0.966 ± 0.032
TCTTGTTATT	0.9985 ± 0.0054
TCTTGTTGGG	1.01 ± 0.023

Sequence	switch fluorescence ratio
TCTTGTTTTT	0.977 ± 0.022
TCTTTAATGG	1.01 ± 0.042
TCTTTATACT	1.05 ± 0.034
TCTTTATCCC	1.18 ± 0.084
TCTTTCATGT	1.02 ± 0.02
TCTTTGAAGT	1 ± 0.019
TCTTTGGGAC	0.994 ± 0.028
TCTTTTGGGG	1.03 ± 0.024
TCTTTTTTAG	0.998 ± 0.036
TCTTTTTTTA	1.02 ± 0.06
TCTTTTTTTT	1 ± 0.041
TGAAAACACG	1.17 ± 0.22
TGAAAATCGG	0.965 ± 0.02
TGAAACCACT	1.1 ± 0.013
TGAAACGCTG	1.06 ± 0.04
TGAAAGCCGG	0.965 ± 0.045
TGAAAGCGCC	1.07 ± 0.03
TGAAAGTGGA	1.05 ± 0.034
TGAAATAGGT	0.99 ± 0.036
TGAAATATGT	0.987 ± 0.04
TGAAATTTTA	0.9926 ± 0.006
TGAAATTTTT	0.982 ± 0.029
TGAACGACGG	1.02 ± 0.073
TGAACGGGCC	1.036 ± 0.00055
TGAACTGTTC	1.04 ± 0.069
